Residue numbers refer to the chain shown, from its start.
How the values were obtained:
[1] = system: blood-brain barrier simulation system; assay: Material permeability of blood-brain barrier simulation system (monkey BBB kit); format: cell-based; details: 12 hours after addition, FIG. 13
mCLDN-5 [2] = target: T1, mCLDN-5 (Mus musculus, UniProt O54942); assay: Evaluation of CLDN specificity by FACS, mCLDN-5-expressing cells; format: binding; details: hybridoma culture supernatant as primary antibody, FIG. 1B
T1 construct: expressed in transfected cells; host or cells: retrovirus-infected cells
T1 sequence (O54942 1-218): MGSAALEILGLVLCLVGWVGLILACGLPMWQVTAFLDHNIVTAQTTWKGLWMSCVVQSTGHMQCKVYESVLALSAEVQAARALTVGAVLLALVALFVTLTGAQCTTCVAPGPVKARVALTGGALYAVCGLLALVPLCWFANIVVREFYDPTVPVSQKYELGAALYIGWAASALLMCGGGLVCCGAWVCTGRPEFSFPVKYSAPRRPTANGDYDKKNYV

hCLDN-5 [3] = target: T2, hCLDN-5 (Homo sapiens, UniProt O00501); assay: Western blotting operability, HT-1080/hCLDN-5 lysate; format: binding; details: SDS-PAGE under reducing condition, antibody concentration 10 μg/mL, FIG. 5
T2 construct: expressed in transfected cells; host or cells: HT-1080 human fibrosarcoma cells infected with a pCX4pur-derived retrovirus (HT-1080/hCLDN-5)
T2 sequence (O00501 1-218): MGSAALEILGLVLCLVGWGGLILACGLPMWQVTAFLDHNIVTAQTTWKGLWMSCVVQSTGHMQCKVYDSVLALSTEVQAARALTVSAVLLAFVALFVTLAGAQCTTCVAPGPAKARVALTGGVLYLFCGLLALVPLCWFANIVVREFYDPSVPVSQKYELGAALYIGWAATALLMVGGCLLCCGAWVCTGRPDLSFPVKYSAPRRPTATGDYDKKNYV
Method: FIG. 5 illustrates western blotting images showing the CLDN-5 primary structure recognizability of the anti-CLDN-5 antibodies obtained in Example 3-6). The primary antibodies used are shown at the top of the images, and the used cells are shown under the primary antibodies. The names of proteins represented by bands are shown on the left side of the images.
Cell lysates were prepared from HT-1080/mock and HT-1080/hCLDN-5 obtained in Example 1-2), and the lysates were separated by SDS-PAGE under a reducing condition. By using the antibodies (antibody concentration: 10 μg/mL) obtained in Example 1 as primary antibodies, western blotting was performed according to the conventional method. As primary antibodies, commercial monoclonal antibodies (4C3C2, Invitrogen, 35-2500) recognizing the C-terminal of CLDN-5 were used as positive control, and β actin antibodies (Sigma Aldrich, A1978) were used as loading control. The results are illustrated in FIG. 5.

1-1-5 = target: T3, 1-1-5 (Homo sapiens, UniProt O00501, A34S/A72N/D37G/E76T/F35Y/G26A/H38D/H61Q/K48E/L36A/M29Q/M62I/Q31R/T33Y/T45A/T46M/T75S/V32I/V56S/V70L/W47Y/Y67F); assay: Epitope analysis FACS, chimeric protein 1-1-5; format: binding; details: antibody concentration 5 μg/mL; first extracellular loop substituted with hCLDN-1
T3 construct: expressed in transfected cells; host or cells: retrovirus-infected cells (pCX4pur)
T3 sequence (O00501 1-218 G26A/M29Q/Q31R/V32I/T33Y/A34S/F35Y/L36A/D37G/H38D/T45A/T46M/W47Y/K48E/V56S/H61Q/M62I/Y67F/V70L/A72N/T75S/E76T): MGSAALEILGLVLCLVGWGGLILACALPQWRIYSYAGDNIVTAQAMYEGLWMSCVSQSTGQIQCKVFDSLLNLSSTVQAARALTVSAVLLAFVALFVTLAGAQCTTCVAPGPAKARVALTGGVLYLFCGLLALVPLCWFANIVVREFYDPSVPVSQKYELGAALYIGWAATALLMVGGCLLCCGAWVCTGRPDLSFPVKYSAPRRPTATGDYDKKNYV

hCLDN-5 [4] = assay: Epitope analysis by hCLDN-5/mCLDN-5 chimeric CLDN (D68E, T75A, S151T, TM; FACS); format: binding, human; details: antibody concentration 5 μg/mL, mutants D68E
CLDN-5 = CLDN-5 localization by immunostaining in blood-brain barrier simulation system; format: cell-based; details: monkey BBB kit, 12 hours after addition, FIG. 14
ZO-1 = ZO-1 localization by immunostaining in blood-brain barrier simulation system; format: cell-based; details: monkey BBB kit, 12 hours after addition, FIG. 14
5-5-1 = target: T4, 5-5-1 (Homo sapiens, UniProt O00501, A162Q/K157R/L160F/Q156A/S151M/S155N/V152T); assay: Epitope analysis FACS, chimeric protein 5-5-1; format: binding; details: antibody concentration 5 μg/mL; second extracellular loop substituted with hCLDN-1
T4 construct: expressed in transfected cells; host or cells: retrovirus-infected cells (pCX4pur)
T4 sequence (O00501 1-218 S151M/V152T/S155N/Q156A/K157R/L160F/A162Q): T2 sequence (O00501 1-218) with S151M, V152T, S155N, Q156A, K157R, L160F, A162Q

hCLDN-5 [5] = assay: Epitope analysis by hCLDN-5/hCLDN-1 chimeric CLDN (FACS), loop assignment; format: binding, human; details: antibody concentration 5 μg/mL, hCLDN-5/hCLDN-1 chimeras
mCLDN-5 [6] = target: T1, mCLDN-5; assay: Cross-species activity FACS, mCLDN-5-expressing cells; format: binding; details: antibody concentration 5 μg/mL, FIG. 2
MDCKII/hCLDN-5 = assay: TEER of CLDN-5 compulsory expression system, MDCKII/hCLDN-5; format: cell-based, human; details: MDCKII/hCLDN-5, FIG. 7B

B1: R9: rat anti-CLDN-5 monoclonal antibody, IgG2b/K; VH SEQ ID NO: 17, VL SEQ ID NO: 18; example of antibody I (antibody, V domains shown)
VH: QVTLKESGPGILQPSHTLSLTCSFSGFSLNTYGVGVNWIRQPSGKGLEWLASIWWHGKTYINPSLKNRLTVSKDPSNNQAFLEVTNVDPADTATYYCAHARAQLLDYWGQGVMVTVSS
VL: DIVMTQTPSSQAVSAGEKVTMSCKSSQSLLYSGDQKNYLAWYQQKPGQSPKLLIYLTSTRESGVPDRFIGSGSGTDFTLTISSVQAEDLADYYCQQHYSYPLTFGSGTKLEI
modifications: R9 VH; R9 VL
4 kDa FITC-dextran permeability of the blood-brain barrier simulation system [1]: exhibited an activity of improving | binding capacity to mCLDN-5 (mCLDN-5 [2]): extremely low | recognition of linear peptide (western blotting operability) (hCLDN-5 [3]): strongly recognized | recognition of 1-1-5 (1-1-5): capable of recognizing | portion of hCLDN-5 recognized (hCLDN-5 [4]): domain around the 151st amino acid from the N-terminal present in the second extracellular loop | localization properties of CLDN-5 in the intercellular space (CLDN-5): reduced | localization properties of ZO-1 (ZO-1): did not change | recognition of 5-5-1 (5-5-1): incapable of recognizing | extracellular loop of CLDN-5 recognized (hCLDN-5 [5]): second extracellular loop | binding capacity to mCLDN-5 (mCLDN-5 [6]): extremely low | reduction in TEER (MDCKII/hCLDN-5): greatly reducing TEER

Reference: patent publication US11053313B2, “Anti-CLDN-5 antibody, and drug containing said antibody” (OSAKA UNIVERSITY, priority 2017, dated 2021)
